Experiments:
Assay type in all cases: cell-based, human
[1] = system: primary CD34+ cells from patients with CALR mutant myelofibrosis; assay: TPO-independent megakaryocyte differentiation in liquid culture
Text: (§1) Patient samples were collected with informed consent from the South Australian Cancer Research Biobank (SACRB: Adelaide, Australia). Primary CD34+ stem/progenitor cells from peripheral blood samples from patients with JAK2^V617F or CALR mutant myelofibrosis were purified by flow cytometry using CD34-APC antibody, anti-human CD45RA Brilliant Violet 605, anti-CD90 FITC, anti-human CD123-PE, anti-human CD38 PE-Cy7, or with CD34-APC antibody, anti-human CD3 FITC, anti-human CD19-PE (clone H1B19) and anti-human CD14 PE-Cy7.
(§2) For megakaryocyte differentiation assays, CD34+ cells derived from cord blood or from patient peripheral blood mononuclear fractions were plated in Megacult (MegaCult™-C Collagen and Medium with Lipids) with added IL-3 and IL-6 (10 ng/ml) in the presence or absence of 50 ng/mL TPO. Cells were plated at an initial density of 1800 cells/well and cultured for 12 days at 37° C. and 5% CO2. Primary PMF CD34+ cells were cultured in StemCell Pro supplemented with human recombinant SCF (25 ng/mL), IL-6 and IL-9 (10 ng/ml) to allow differentiation into megakaryocytes. CD34+cord blood cells were cultured in 50 ng/mL SCF, 50 ng/ml TPO, 20 ng/ml IL-6 and 20 ng/ml IL-9. Both IgG and 4D7 were added at 20 μg/mL. All cytokines are from Preprotech. Culture media was replenished every 3 days and cells were assessed for megakaryocyte differentiation on day 12 using anti-human CD41/61 PE-Cy7 (Clone A2A9/6) and CountBright beads (Thermo Fisher) to enumerate cell numbers. CD34+obtained from UCB were plated in MethoCult containing cytokines (H4434). Cells were seeded at approximately 100 cells per well and were cultured in the presence of 20 μg/mL 4D7 or control IgG antibody and scored for colony and blast forming units at 12-14 days.

[2] = system: primary CD34+ cells from JAK2 V617F myelofibrosis samples; assay: as above; conditions: 3 out of 3 JAK2 V617F myelofibrosis samples
Text: as §1, §2

[3] = system: TF-1 expressing the PTPN11 E76K mutation; assay: Cell proliferation, trypan blue exclusion; conditions: 10 or 20 μg/mL
Method: (§3) A. Cytokine dependent TF-1 TpoR cells with an overexpression of WT CALR cultured in the absence of TPO, 10 ng/ml hTPO and 10 or 20 μg/mL 4D7 anti-mutant CALR antibody or 20 μg/mL control IgG antibody for 5 days and the number of trypan blue negative cells were counted every 24 hours (n=3). B. Cytokine dependent TF-1 CALR^del52 cells, lacking TpoR were cultured in the presence of 2 ng/mL GM-CSF and 10 or 20 μg/mL 4D7 or 20 μg/mL control IgG antibody (n=3). C. Cytokine dependent TF-1 CALR^del61 cells, lacking TpoR were cultured in the presence of 2 ng/ml GM-CSF and 10 or 20 μg/mL 4D7 or 20 μg/mL control IgG antibody (n=3). D. MARIMO cells from which the CALR^del61 mutation was originally amplified were cultured in the presence of 2, 10 or 20 μg/mL 4D7 or 20 μg/mL control IgG antibody (n=3). E. Cytokine independent SET2 cells which harbour the pathogenic JAK2^V617F mutation were cultured in the presence of 2, 10 or 20 μg/mL 4D7 or 20 μg/mL control IgG antibody (n=3). F. Cytokine independent TF-1 PTPN11^E76K cells were cultured in the presence of 10 or 20 μg/mL 4D7 or 20 μg/mL control IgG antibody (n=3).
(§4) In brief, cells were seeded at 5×10^4/mL in standard growth media, with any necessary cytokines, and the addition of 20 μg/mL IgG or 2, 10 or 20 μg/mL 4D7. Cells were seeded in triplicate and each well was counted in triplicate every 24 hours for 5 days using trypan blue exclusion.

[4] = system: TF-1 CALR^del61 cells, lacking TpoR; assay: Cell proliferation, trypan blue exclusion; conditions: 2 ng/ml GM-CSF; 10 or 20 μg/mL
Method: as §3, §4

[5] = system: TF-1 CALR^del52 cells, lacking TpoR; assay: Cell proliferation, trypan blue exclusion; conditions: 2 ng/mL GM-CSF; 10 or 20 μg/mL
Method: as §3, §4

[6] = system: TF-1 TpoR CALR^del61 cells; assay: Cell cycle analysis by flow cytometry (propidium iodide); conditions: 20 μg/mL, 48 hours; P=0.001
Method: Cell cycle analysis was carried out by flow cytometry. Briefly, TF-1 TpoR and TF-1 TpoR CALR^del61 cells were seeded at a concentration of ˜2×10^5 per well in triplicate under standard culture conditions, with the addition of 20 μg/mL IgG or 4D7. Cells were treated for 48 hours and were fixed by 70% (v/v) ethanol at 4° C. overnight. Fixed cells were rinsed twice with PBS and stained with 50 μg/mL propridium iodide (PI: ThermoFisher)+100 μg/mL RNAse A (QIAGEN). Cells were incubated for 30 minutes at RT in the dark and analysed on the BD FACSCantoII (BD Biosciences).

B1: 4D7: rat monoclonal IgG2a antibody against the mutant CALR neoepitope; VH SEQ ID NO: 5, VL SEQ ID NO: 7 (antibody, listed as Rattus rattus, V domains shown)
VH: QVQLQQSGAELAKPGSSVKISCKASGYTFTNYDMSWIKQRPGQALEWIGAINPGNGVTDYNEKFRGKATLTVDKSSSTAFMQLSSLTPEDTAVYHCAREYRDNYGYFDYWGQGVMVTVSS
VL: DIVLTQTPVSLSVTLGDQASISCRSSQSLEYSDGYTYLDWFLQKPGQSPQLLIYEVSSRFSGVPDRFIGRGSGTDFTLKISRVEPEDLGVYYCFQATHDPFTFGSGTKLEIK
- mean decrease of CD41+ cells across CALR mutant samples ([1]; 20 μg/mL, day 12, normalised to IgG): 55%
- inhibition of CD41+ megakaryocytes compared to IgG control ([1]; additional samples in 2 independent patients (Graz), including type 2 CALR (5 base pair insertion)): evidence of inhibition
- inhibition of TPO-independent growth of CD41+CD61+ megakaryocyte progenitors ([1]; four out of 5 mutant CALR MF patient samples, 20 μg/mL, 12 days, vs IgG): at least 50%
- inhibition of CD41+CD61+ megakaryocyte progenitors ([1]; patient sample with a 34 base pair deletion): weaker inhibition
- inhibition of CD41+CD61+ megakaryocyte progenitors [2]: No significant inhibition
- inhibition of proliferation [3]: no inhibition
- effect on proliferation [4]: unaffected
- effect on proliferation [5]: unaffected
- sub-Go fraction compared to IgG control [6]: significant increase

Source: patent US20250236667A1, “ANTIBODIES TO MUTANT CALRETICULIN AND USES THEREOF” (CENTRAL ADELAIDE LOCAL HEALTH NETWORK INC, priority 2021, published 2025)
